First the molecules themselves.
B1: GDF15 antibody agent Clone M, Fab (Fab, V domains shown)
VH: QVQLVQSGAEVKKPGASVKVSCKASGYTFDSYGINWVRQAPGQGLEWMGWISAYSGDTAYAQELQGRVTMTTDTSTSTAYMELRSLRSDDTAVYYCVRDTQYGGSPYWGQGTLVTVSS
VL: EIVMTQSPATLSVSPGERATLSCRASQSVSSNLAWYQQKPGQAPRLLIYGASTRATGIPARFSGSGSGTEFTLTISSLQSEDFAVYYCQQYNNWPITFGGGTKVEIK
notes: Fab; CH1 and CL of the Fab not specified; also called Fab of Clone M
B2: GDF15 antibody agent Clone E, Fab (Fab, V domains shown)
VH: QVQLVQSGAEVKKPGASVKVSCKASGYTFTSYGINWVRQAPGQGLEWMGWITAYSGDTNYAQKLQGRVTMTTDTSTSTAYMELRSLRSDDTAVYYCARGPGQYADVDVWGQGTMVTVSS
VL: DIQMTQSPSSVSASVGDRVTITCRASQGISSWLAWYQQKPGKAPKLLIYAASSLQSGVPSRFSGSGSGTDFTLTISSLQPEDFATYYCQQANSFPITFGGGTKVEIK
notes: Fab; CH1 and CL of the Fab not specified; also called Fab of Clone E
B3: GDF15 antibody agent Clone K, Fab (Fab, V domains shown)
VH: QVQLVQSGAEVKKPGASVKVSCKASGYTFTNEGISWVRQAPGQGLEWMGWISAYTADTFYAQKLQGRVTMTTDTSTSTAYMELRSLRSDDTAVYYCARTRHDTSGLRFDYWGQGTLVTVSS
VL: B2 VL with S30D, A91V, N92H
notes: Fab; CH1 and CL of the Fab not specified; also called Fab of Clone K
B4: GDF15 antibody agent Clone L, Fab (Fab, V domains shown)
VH: B3 VH with T30A, N31S, E32Y, G33D, S35I, Y54L, T55S, A56G, F59V, L106I
VL: B2 VL with S30D, A91V, N92H
notes: Fab; CH1 and CL of the Fab not specified; also called Fab of Clone L
B5: GDF15 antibody agent Clone I, Fab (Fab, V domains shown)
VH: B2 VH with S31D, Y32E, N59V
VL: B2 VL
notes: Fab; CH1 and CL of the Fab not specified; also called Fab of Clone I
B6: GDF15 antibody agent Clone J, Fab (Fab, V domains shown)
VH: B2 VH with T52D, D57S
VL: B2 VL
notes: Fab; CH1 and CL of the Fab not specified; also called Fab of Clone J
B7: GDF15 antibody agent Clone P, Fab (Fab, V domains shown)
VH: QVQLVQSGAEVKKPGATVKVSCKASGYTFDSYGIHWVRQAPGQGLEWMGWITAYSGDTVYAQKLQGRVTMTTDTSTSTAYMELRSLRSDDTAVYYCARESGQTSSALGPWGQGTLVTVSS
VL: B2 VL with S31R, A91G, N92A, I96L
notes: Fab; CH1 and CL of the Fab not specified; also called Fab of Clone P
B8: GDF15 antibody agent Clone H, Fab (Fab, V domains shown)
VH: QVQLVQSGAEVKKPGSSVKVSCKASGGTFSSYYISWVRQAPGQGLEWMGGIAPISGTASYAQKFQGRVTITADESTSTAYMELSSLRSEDTAVYYCARGLAYDGYFDLWGRGTLVTVSS
VL: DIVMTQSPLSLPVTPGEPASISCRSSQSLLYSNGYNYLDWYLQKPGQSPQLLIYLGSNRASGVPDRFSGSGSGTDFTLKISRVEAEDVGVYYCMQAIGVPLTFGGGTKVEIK
notes: Fab; CH1 and CL of the Fab not specified; also called Fab of Clone H
B9: GDF15 antibody agent Clone O, Fab (Fab, V domains shown)
VH: B7 VH with Y32L, I34M, H35S, W50Y, T52S, A53T, T103Q, S104V, G108D
VL: B2 VL with S31R, A91G, N92A, I96L
notes: Fab; CH1 and CL of the Fab not specified; also called Fab of Clone O
B10: GDF15 antibody agent Clone T, Fab (Fab, V domains shown)
VH: B2 VH
VL: B2 VL with N92S, S93Q
notes: Fab; CH1 and CL of the Fab not specified; also called Fab of Clone T
B11: GDF15 antibody agent Clone S, Fab (Fab, V domains shown)
VH: B2 VH
VL: B2 VL with M4L, S31P
notes: Fab; CH1 and CL of the Fab not specified; also called Fab of Clone S

The text below walks through data of US20250382359A1 (BYOMASS, published 2025).

By Kd is commonly meant the concentration at which binding is half-saturated. A low value points to a tighter complex. Usually koff stands for the rate constant with which the complex falls apart. Lower therefore signals slow dissociation. A word on the kon: it is the rate constant with which the complex forms. A low value points to slow association.

Numbering of substitutions follows the chain as printed. Several values for one entry are separate records, joined by “and”; a condition that tells them apart may be missing. Equal values may be shown once.

For one test, the target named is T1, GDF15 (ligand used in the GFRAL/RET cell assays) (UniProt Q99988 197-308, limits assumed).
T1 sequence (looked up): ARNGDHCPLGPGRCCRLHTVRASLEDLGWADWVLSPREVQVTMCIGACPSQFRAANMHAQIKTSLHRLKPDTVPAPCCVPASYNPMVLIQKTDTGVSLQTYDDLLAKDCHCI
Description: cell-based or functional assay.
Regarding B1, the “GDF15 GFRAL RET pERK Fab IC50 pM” value came to 1370 pM.

Turning to B2, the “GDF15 GFRAL RET pERK Fab IC50 pM” value is 46.7 pM.

With B3, the “GDF15 GFRAL RET pERK Fab IC50 pM” value worked out at 169 pM.

On to B4, for which the “GDF15 GFRAL RET pERK Fab IC50 pM” value was determined as 2.1 µM.

On to B5, for which the “GDF15 GFRAL RET pERK Fab IC50 pM” value is 111 pM.

With B6, the “GDF15 GFRAL RET pERK Fab IC50 pM” value turned out to be 75.1 pM.

On to B7, for which the “GDF15 GFRAL RET pERK Fab IC50 pM” value is 701 pM and 1000 pM.

For the molecule B8, the “GDF15 GFRAL RET pERK Fab IC50 pM” value stood at 24.6 pM.

Another test deals with T2, Cyno GDF15 Fc (cyno, UniProt G7PWZ3 193-308, limits assumed).
T2 construct: also called cyno GDF15-Fc fusion; not shown: Fc part
T2 sequence: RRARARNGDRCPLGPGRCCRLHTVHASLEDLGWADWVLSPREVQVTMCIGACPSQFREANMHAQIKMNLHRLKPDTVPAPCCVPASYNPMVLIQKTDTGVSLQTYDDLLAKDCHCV
Kind of test: BLI Octet; antigen on sensor, 100 nM Fab (monovalent).
B1 displayed a Kd of 1.91 nM.

With B2, the Kd was found to be 0.413 nM.

The molecule B3 returned a dissociation constant Kd of 2.4 nM.

B9 registered a Kd of 0.077 nM.

As for B10, the affinity, expressed as Kd, was 0.369 nM.

B4 displayed a Kd of 1.56 nM.

B5 gave a dissociation constant Kd of 1.38 nM.

The molecule B6 yielded a Kd of 0.769 nM.

Take B7: the affinity, expressed as Kd, was 1.72 nM.

In turn, B11 yielded an equilibrium dissociation constant (Kd) of 0.252 nM.

On to B8, for which the dissociation constant Kd was 1.42 nM.

Another test concerns the target T3, Human GDF15 Fc (human, UniProt Q99988 195-308, limits assumed, biotinylated (EZ-Link Sulfo-NHS-Biotinylation Kit) in the SPR assay).
T3 construct: also called human GDF15-Fc fusion; biotinylated Human GDF15 Fc; not shown: Fc part
T3 sequence: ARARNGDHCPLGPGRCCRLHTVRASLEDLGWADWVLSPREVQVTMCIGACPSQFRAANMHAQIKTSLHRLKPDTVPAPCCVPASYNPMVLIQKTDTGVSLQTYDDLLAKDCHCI
The test is described as above.
B1 came in with an equilibrium dissociation constant (Kd) of 3.88 nM.

B2: the Kd was 0.921 nM.

On to B3, for which the Kd is 2.11 nM.

On to B9, for which the equilibrium dissociation constant (Kd) stood at 0.016 nM.

For B10, the equilibrium dissociation constant (Kd) came to 0.613 nM.

Regarding B4, binding was characterised by a dissociation constant (Kd) of 1.58 nM.

The molecule B5 gave a Kd of 1.25 nM.

On to B6, for which binding was characterised by a dissociation constant (Kd) of 1.28 nM.

B7 came in with a Kd of 3.68 nM.

In turn, B11 showed a dissociation constant (Kd) of 0.48 nM.

The molecule B8 displayed a Kd of 1.24 nM.

In a further test the target is T4, Mouse GDF15 Fc (mouse, UniProt Q9Z0J7 189-303, limits assumed).
T4 construct: also called mouse GDF15-Fc fusion; not shown: Fc part
T4 sequence (looked up): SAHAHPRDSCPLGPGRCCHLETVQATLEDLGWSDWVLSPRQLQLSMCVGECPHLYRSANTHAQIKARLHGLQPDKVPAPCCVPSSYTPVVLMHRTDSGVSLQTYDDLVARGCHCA
Described as above.
Take B1: the Kd was found to be 31.4 nM.

In the case of B2, the affinity, expressed as Kd, was 3.08 nM.

As to B3, the Kd turned out to be 333 nM.

Turning to B9, the Kd was determined as 1.6 nM.

The molecule B10 returned a dissociation constant Kd of 1.92 nM.

In turn, B4 returned a Kd of 229 nM.

In the case of B5, binding was put at a Kd of 1.45 nM.

On to B11, for which the Kd is 1.36 nM.

As for B8, the dissociation constant Kd came to 50.9 nM.

In another test the target is T3, Human GDF15 Fc. Kind of test: SPR Biacore 8K; biotinylated antigen captured, Fab analyte. The protocol:
Kinetic analysis was conducted at 25° C. in HBS-EP+running buffer (10 mM HEPES pH 7.4, 150 mM NaCl, 3 mM EDTA, 0.05% Surfactant P20) using a Biacore 8K optical biosensor (Cytiva, Marlborough, MA). The sample compartment was maintained at 10° C. for the duration of the experiment. The Biacore 8K can analyze up to 8 separate interactions in a single cycle.
Each experiment cycle began with an injection (300 s at 2 μL/min) overflow cells 1 and 2 of a 1:100 solution of biotin CAPture reagent (Cytiva) in running buffer. This was followed by an injection (45 s at 10.0 μL/min) of biotinylated human GDF15 (5 nM) overflow cell 2. […] The dissociation of the antibodies were monitored for 3420 s. Finally, an injection (120 s at 10 μL/min) of regeneration solution (6 M Guanidine-HCl in 0.25 M NaOH) overflow cells 1 and 2 prepared the sensor surface for another cycle. Several blank buffer samples were injected (300 s at 30 μL/min) overflow cells 1 and 2 throughout the duration of the experiment and used for reference surface subtraction—each were monitored for the same amount of dissociation time (3420 s) and regenerated under the same conditions as those for the Fab sample injections.
On the technique in general: Surface plasmon resonance follows binding to a sensor surface in real time, without labels.
For the molecule B1, the affinity, expressed as Kd, was 0.599 nM; the off-rate constant (koff) turned out to be 0.00191 s⁻¹; the on-rate (kon) was 3.2e+06 M⁻¹ s⁻¹.

With B2, binding was characterised by a dissociation constant (Kd) of 0.0331 nM, the koff was determined as 8.71e-05 s⁻¹ and the kon came to 2.63e+06 M⁻¹ s⁻¹.

B3 came in with a Kd of 0.23 nM, a dissociation rate constant (koff) of 0.00112 s⁻¹ and a kon of 4.87e+06 M⁻¹ s⁻¹.

As to B9, the dissociation constant (Kd) turned out to be 0.0341 nM, the koff was determined as 7.11e-05 s⁻¹ and the kon worked out at 2.08e+06 M⁻¹ s⁻¹.

On to B10, for which the Kd worked out at 0.0411 nM, the koff amounted to 4.52e-05 s⁻¹ and the kon came to 1.1e+06 M⁻¹ s⁻¹.

On to B4, for which the Kd came out at 0.144 nM, the dissociation rate constant (koff) came out at 0.000576 s⁻¹ and the on-rate (kon) was 3.99e+06 M⁻¹ s⁻¹.

On to B5, for which the Kd is 0.0672 nM, the koff came out at 0.000259 s⁻¹ and the kon was determined as 3.85e+06 M⁻¹ s⁻¹.

Regarding B6, binding was put at a Kd of 0.0884 nM, the off-rate constant (koff) stood at 0.000404 s⁻¹ and the kon was found to be 4.57e+06 M⁻¹ s⁻¹.

Take B7: the dissociation constant Kd amounted to 0.126 nM, the koff stood at 0.0021 s⁻¹ and the kon is 1.66e+07 M⁻¹ s⁻¹.

In the case of B11, the equilibrium dissociation constant (Kd) is 0.0369 nM, the koff was 4.93e-05 s⁻¹ and the kon was found to be 1.34e+06 M⁻¹ s⁻¹.

In the case of B8, binding was characterised by a dissociation constant (Kd) of 0.117 nM, the koff amounted to 0.000735 s⁻¹ and the kon is 6.29e+06 M⁻¹ s⁻¹.
